According to US20250154500A1 (SEOUL NATIONAL UNIVERSITY R AND DB FOUNDATION, published 2025):

Molecular target: T1, FLAG-tagged ZCCHC2 ΔN (201-1,178 a.a) (human, UniProt Q9C0B9 201-1178)
T1 construct: Transiently expressed in HeLa ZCCHC2 knockout cells; also called pCK-Flag-ZCCHC2 (201-1178); not shown: FLAG tag and any linker to it; The plasmid name pCK-Flag-ZCCHC2 puts the tag at the N-terminus
Experiment: anti-FLAG co-immunoprecipitation from HeLa ZCCHC2 KO cells, western blot
Procedure: Data are normalized against the value of the wild-type sample and represented as mean±SEM (n=3). * indicates p<0.05, with a two-sided Student's t-test performed. […] Full-length ZCCHC2 protein and its truncated mutants (ΔC, ΔN) were compared for their ability to interact with TENT4 proteins. TENT4A and GAPDH were detected on the same gel, whereas the other proteins were analyzed on separate gels with the same amounts of samples. Cross-reacting bands are indicated by asterisks.
For co-IP experiment, parental cells and TENT4 dKO cells on a 150 μl plate were lysed on ice for 20 minutes using Buffer A (100 mM KCl, 0.1 mM EDTA, 20 mM HEPES [pH 7.5], 0.4% NP-40, 10% glycerol) containing 1 mM DL-Dithiothreitol (DTT), 1× protease inhibitor, and RNase A (Thermo, EN0531), and then centrifuged. For immunoprecipitation, 12.5 μg of antibody (NMG, anti-TENT4A, and anti-TENT4B) conjugated to protein A and G sepharose beads (1:1 mixture, total 20 μl) was used with 1 mg of the lysates. After incubation at 4° C. for 2 hours, the beads were washed, boiled in 20 μl of 2×SDS buffer, and loaded onto a 4-12% (Novex) SDS-PAGE gel with the ladder (Thermo, 26616 and 26619). For domain co-IP experiment, full-length ZCCHC2, truncated construct of ZCCHC2, and negative construct having FLAG tag were transfected in ZCCHC2KO cells, and the cells were lysed within 2 days. […]

T1 sequence (Q9C0B9 201-1178 limits assumed, stated change not applied): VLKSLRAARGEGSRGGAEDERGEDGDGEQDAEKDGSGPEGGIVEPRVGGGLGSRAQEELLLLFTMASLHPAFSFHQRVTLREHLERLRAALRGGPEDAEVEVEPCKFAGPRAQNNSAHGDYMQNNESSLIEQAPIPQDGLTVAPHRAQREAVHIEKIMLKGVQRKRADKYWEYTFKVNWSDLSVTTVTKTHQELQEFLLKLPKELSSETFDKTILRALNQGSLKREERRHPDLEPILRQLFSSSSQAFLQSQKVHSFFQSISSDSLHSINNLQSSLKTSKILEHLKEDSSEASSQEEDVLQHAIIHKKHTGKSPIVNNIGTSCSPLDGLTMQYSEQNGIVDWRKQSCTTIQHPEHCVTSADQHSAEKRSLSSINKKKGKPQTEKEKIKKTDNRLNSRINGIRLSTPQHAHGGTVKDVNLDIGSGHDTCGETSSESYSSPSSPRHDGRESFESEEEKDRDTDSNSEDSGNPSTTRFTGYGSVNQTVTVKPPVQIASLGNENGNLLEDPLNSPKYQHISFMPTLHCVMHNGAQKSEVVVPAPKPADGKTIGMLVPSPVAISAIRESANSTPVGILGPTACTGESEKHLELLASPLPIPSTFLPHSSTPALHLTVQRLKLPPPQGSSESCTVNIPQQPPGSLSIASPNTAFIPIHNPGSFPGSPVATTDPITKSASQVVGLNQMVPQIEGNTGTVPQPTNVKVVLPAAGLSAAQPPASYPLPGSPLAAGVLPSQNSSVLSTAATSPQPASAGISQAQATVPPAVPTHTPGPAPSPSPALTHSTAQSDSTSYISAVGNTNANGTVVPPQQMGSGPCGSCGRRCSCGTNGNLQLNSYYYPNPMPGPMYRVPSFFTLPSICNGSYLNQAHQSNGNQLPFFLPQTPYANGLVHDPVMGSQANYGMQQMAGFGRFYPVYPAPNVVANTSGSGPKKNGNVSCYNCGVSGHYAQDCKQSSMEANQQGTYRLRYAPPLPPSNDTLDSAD

Row | Binder | binding result
1 | TENT4A (enzyme, human, UniProt Q5XG87 1-792, looked up, Endogenous protein of HeLa (human) cells; also called PAPD7; TRF4-1) MDPRVAWIQPEQKGPANALWMQIWETSQGVGRGGSGFASYFCLNSPALDTAAAAGAAGRGSGGLGPALPAASPPPPGPTAPAALPPALLTALGPAAEGARRLHKSPSLSSSSSSSSSNAESGTESPGCSSSSSSSASLGRPGGGRGGAFFNFADGAPSAPGTANGHPGPRGPAPAGSPSQHQFHPGRRKRENKASTYGLNYLLSGSRAAALSGGGGPGAQAPRPGTPWKSRAYSPGIQGLHEEIIDFYNFMSPCPEEAAMRREVVKRIETVVKDLWPTADVQIFGSFSTGLYLPTSDIDLVVFGKWERPPLQLLEQALRKHNVAEPCSIKVLDKATVPIIKLTDQETEVKVDISFNMETGVRAAEFIKNYMKKYSLLPYLILVLKQFLLQRDLNEVFTGGISSYSLILMAISFLQLHPRIDARRADENLGMLLVEFFELYGRNFNYLKTGIRIKEGGAYIAKEEIMKAMTSGYRPSMLCIEDPLLPGNDVGRSSYGAMQVKQVFDYAYIVLSHAVSPLARSYPNRDAESTLGRIIKVTQEVIDYRRWIKEKWGSKAHPSPGMDSRIKIKERIATCNGEQTQNREPESPYGQRLTLSLSSPQLLSSGSSASSVSSLSGSDVDSDTPPCTTPSVYQFSLQAPAPLMAGLPTALPMPSGKPQPTTSRTLIMTTNNQTRFTIPPPTLGVAPVPCRQAGVEGTASLKAVHHMSSPAIPSASPNPLSSPHLYHKQHNGMKLSMKGSHGHTQGGGYSSVGSGGVRPPVGNRGHHQYNRTGWRRKKHTHTRDSLPVSLSR | no binding
2 | TENT4B (enzyme, human, UniProt Q8NDF8 1-572, looked up, Endogenous protein of HeLa (human) cells; also called PAPD5; TRF4-2) MYRSGERLLGSHALPAEQRDFLPLETTNNNNNHHQPGAWARRAGSSASSPPSASSSPHPSAAVPAADPADSASGSSNKRKRDNKASGGRAAGGGRADGGGVVYSGTPWKRRNYNQGVVGLHEEISDFYEYMSPRPEEEKMRMEVVNRIESVIKELWPSADVQIFGSFKTGLYLPTSDIDLVVFGKWENLPLWTLEEALRKHKVADEDSVKVLDKATVPIIKLTDSFTEVKVDISFNVQNGVRAADLIKDFTKKYPVLPYLVLVLKQFLLQRDLNEVFTGGIGSYSLFLMAVSFLQLHPREDACIPNTNYGVLLIEFFELYGRHFNYLKTGIRIKDGGSYVAKDEVQKNMLDGYRPSMLYIEDPLQPGNDVGRSSYGAMQVKQAFDYAYVVLSHAVSPIAKYYPNNETESILGRIIRVTDEVATYRDWISKQWGLKNRPEPSCNGPVSSSSATQSSSSDVDSDATPCKTPKQLLCRPSTGNRVGSQDVSLESSQAVGKMQSTQTTNTSNSTNKSQHGSARLFRSSSKGFQGTTQTSHGSLMTNKQHQGKSNNQYYHGKKRKHKRDAPLSDLCR | no binding
